Source: patent US8883964B2, “Compositions comprising modified collagen and uses therefor” (The Johns Hopkins University, priority 2004, dated 2014)
Square brackets hold non-standard residues; d marks the D form. Ends that are not written are not given here. Hyp = O=C(O)[C@@H]1C[C@@H](O)CN1

What was measured:
[1] = Dynamic light scattering of CMP functionalized gold NPs; assay type: physicochemical
Description: The thickness of the peptide layer on the gold NP surface was determined by dynamic light scattering (DLS) (FIG. 15). The peptide layer thicknesses of NP-1, NP-2 and NP-3 were 2.0 nm, 3.65 nm and 6.85 nm, respectively (Table 3).
Purified Cys-CMP (peptides 1′˜4′) (0.5 mL, 500 μM) was added to gold nanoparticle solution (5 mL, 17 nM), and the reaction mixture was incubated at room temperature for twenty-four hours. Excess CMPs were removed by repeated centrifugation and washing in deionized water.

[2] = biological target: T1, type I collagen fibers (Bos taurus, UniProt P02453+P02465); experiment: TEM analysis of NP binding to reconstituted type I collagen fibers; set-up: species or system bovine; conditions: phosphate buffer at 25° C.
T1 construct: natural collagen (acid soluble, bovine type I); purchased Sigma
Description: Moreover, NP-3 seemed to bind to defined locations within the gap regions along the fiber axis (FIG. 19C). Due to the large particle size and limitations of transmission electron microscopy resolution, the exact locations of these binding sites could not be determined. Twice as many NP-3 particles per unit area was found in the gap regions (dark bands) than on the overlap regions (light bands) of the collagen fibers. This difference was abolished at incubation temperatures above 40° C. (FIG. 20).
Collagen fibers were regenerated by mixing 0.5 mL of acid soluble type I collagen (1 mg/mL) in 50 mM acetic acid solution with 1 mL of sodium phosphate buffer (10 mM, pH 8.25). The mixture was incubated at room temperature for 12 hours.
A drop (8 μL) of type I collagen solution (0.3 mg/mL in PBS containing 1% BSA) was added to a holey carbon TEM grid. NP-3 solution (3 nM in PBS containing 1% BSA) was added to the grid and incubated for 5 minutes at room temperature or at 40° C., followed by washing with deionized water. The collagen fibers were stained with uranyl acetate (1%).

[3] = Measurement of number of peptides per NP (passivation number); assay type: physicochemical
Description: The average number of CMPs on the NPs was determined by measuring the concentrations of free CMPs remaining in solution after the removal of the NPs from a series of incubation mixtures with varying CMP/NP ratios (FIG. 16 and Table 3).^36 The numbers of CMPs immobilized on the NP surfaces were 582, 444, and 399 for NP-1, NP-2, and NP-3, respectively. […] This may have been caused by surface anchoring of the chain ends that prohibited the staggered arrangement of the peptide chains required for the formation of triple helix.
Seven 10 μM Cys-CMP solutions with varying concentrations of citrate-stabilized gold NP (2˜14 nM) were prepared. The mixtures were incubated for 2 hours at 25° C. and the gold NPs were removed by centrifugation. The concentrations of free peptides remaining in the supernatant were determined from the UV-Vis absorbance at 215 nm with citrate ion background subtraction. The number of peptides per Au NP was calculated from the slope of the linear fit of the data points. (FIG. 17)

T1 sequence (P02453 162-1217 limits assumed): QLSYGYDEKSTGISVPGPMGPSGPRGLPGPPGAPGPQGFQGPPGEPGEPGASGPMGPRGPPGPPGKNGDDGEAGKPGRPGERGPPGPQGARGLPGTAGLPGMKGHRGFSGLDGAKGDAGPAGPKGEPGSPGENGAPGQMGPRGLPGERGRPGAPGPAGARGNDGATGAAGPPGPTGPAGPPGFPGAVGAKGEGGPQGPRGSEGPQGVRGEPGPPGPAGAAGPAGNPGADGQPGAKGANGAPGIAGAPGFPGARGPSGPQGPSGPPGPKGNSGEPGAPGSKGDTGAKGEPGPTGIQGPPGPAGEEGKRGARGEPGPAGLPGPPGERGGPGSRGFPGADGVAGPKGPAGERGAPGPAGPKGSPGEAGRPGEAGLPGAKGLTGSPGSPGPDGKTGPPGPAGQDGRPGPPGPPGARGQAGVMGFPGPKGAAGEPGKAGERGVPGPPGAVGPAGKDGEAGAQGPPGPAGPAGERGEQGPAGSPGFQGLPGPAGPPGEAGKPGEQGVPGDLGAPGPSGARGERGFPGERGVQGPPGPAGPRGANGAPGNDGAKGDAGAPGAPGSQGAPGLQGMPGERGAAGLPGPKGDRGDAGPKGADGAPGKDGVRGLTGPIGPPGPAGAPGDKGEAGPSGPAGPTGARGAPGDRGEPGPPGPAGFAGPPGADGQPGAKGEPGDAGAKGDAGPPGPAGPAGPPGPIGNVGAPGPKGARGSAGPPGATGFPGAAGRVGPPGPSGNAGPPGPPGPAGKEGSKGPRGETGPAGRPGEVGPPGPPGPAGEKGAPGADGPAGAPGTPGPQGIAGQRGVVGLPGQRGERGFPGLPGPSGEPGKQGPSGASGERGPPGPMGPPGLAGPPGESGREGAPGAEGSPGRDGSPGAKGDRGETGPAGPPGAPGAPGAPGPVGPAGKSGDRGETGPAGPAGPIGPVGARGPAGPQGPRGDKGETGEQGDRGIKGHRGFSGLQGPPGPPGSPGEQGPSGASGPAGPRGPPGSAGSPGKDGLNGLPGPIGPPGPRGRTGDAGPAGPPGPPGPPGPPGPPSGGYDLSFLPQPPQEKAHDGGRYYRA
T1 sequence (P02465 80-1117 limits assumed): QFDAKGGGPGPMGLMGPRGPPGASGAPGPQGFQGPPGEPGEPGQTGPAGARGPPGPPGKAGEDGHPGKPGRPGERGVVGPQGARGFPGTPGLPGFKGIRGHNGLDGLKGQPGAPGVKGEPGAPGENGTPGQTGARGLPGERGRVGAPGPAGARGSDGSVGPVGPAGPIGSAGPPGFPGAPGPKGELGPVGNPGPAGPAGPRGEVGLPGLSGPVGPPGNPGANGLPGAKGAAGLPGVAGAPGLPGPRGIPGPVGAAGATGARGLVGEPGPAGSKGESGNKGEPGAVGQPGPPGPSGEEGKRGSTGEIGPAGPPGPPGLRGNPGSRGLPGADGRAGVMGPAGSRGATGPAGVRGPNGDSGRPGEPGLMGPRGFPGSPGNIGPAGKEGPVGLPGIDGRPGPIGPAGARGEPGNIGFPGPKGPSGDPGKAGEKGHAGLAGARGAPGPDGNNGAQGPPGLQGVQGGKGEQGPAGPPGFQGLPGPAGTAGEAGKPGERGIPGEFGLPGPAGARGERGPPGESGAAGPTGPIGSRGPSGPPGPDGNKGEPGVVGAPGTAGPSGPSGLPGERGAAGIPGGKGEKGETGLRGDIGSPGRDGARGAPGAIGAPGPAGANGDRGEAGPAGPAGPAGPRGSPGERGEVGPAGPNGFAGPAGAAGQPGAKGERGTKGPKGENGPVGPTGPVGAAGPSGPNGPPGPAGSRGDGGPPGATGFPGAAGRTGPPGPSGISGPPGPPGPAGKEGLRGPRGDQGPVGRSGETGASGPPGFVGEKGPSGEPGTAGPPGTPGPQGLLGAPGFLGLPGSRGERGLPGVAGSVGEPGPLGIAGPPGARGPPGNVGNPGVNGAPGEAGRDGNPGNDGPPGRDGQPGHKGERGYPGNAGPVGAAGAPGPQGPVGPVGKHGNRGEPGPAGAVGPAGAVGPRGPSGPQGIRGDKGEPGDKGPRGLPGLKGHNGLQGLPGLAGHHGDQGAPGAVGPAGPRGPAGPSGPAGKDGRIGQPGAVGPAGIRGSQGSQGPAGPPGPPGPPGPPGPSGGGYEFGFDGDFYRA

## NP-4: gold nanoparticle functionalized with scrambled peptide 4′ (CGPG[Hyp]P[Hyp]PPGPP[Hyp]G[Hyp][Hyp]P[Hyp]G[Hyp]GG; also: N-terminal Cys bound to gold nanoparticle surface)
[1]
  Particle Size by DLS: 16.2 ± 3.1 nm
[1]; DLS
  Measured Peptide layer thickness: 1.5 nm
[2]
  binding to type I collagen fibers: little binding
[3]
  Number of peptides per NP: 524 ± 59
